Biological target: T1, plexinD1-Fc (ectodomain of mouse plexinD1 as C-terminal Fc-fusion construct) (mouse, UniProt Q3UH93 49-1271)
T1 sequence (looked up): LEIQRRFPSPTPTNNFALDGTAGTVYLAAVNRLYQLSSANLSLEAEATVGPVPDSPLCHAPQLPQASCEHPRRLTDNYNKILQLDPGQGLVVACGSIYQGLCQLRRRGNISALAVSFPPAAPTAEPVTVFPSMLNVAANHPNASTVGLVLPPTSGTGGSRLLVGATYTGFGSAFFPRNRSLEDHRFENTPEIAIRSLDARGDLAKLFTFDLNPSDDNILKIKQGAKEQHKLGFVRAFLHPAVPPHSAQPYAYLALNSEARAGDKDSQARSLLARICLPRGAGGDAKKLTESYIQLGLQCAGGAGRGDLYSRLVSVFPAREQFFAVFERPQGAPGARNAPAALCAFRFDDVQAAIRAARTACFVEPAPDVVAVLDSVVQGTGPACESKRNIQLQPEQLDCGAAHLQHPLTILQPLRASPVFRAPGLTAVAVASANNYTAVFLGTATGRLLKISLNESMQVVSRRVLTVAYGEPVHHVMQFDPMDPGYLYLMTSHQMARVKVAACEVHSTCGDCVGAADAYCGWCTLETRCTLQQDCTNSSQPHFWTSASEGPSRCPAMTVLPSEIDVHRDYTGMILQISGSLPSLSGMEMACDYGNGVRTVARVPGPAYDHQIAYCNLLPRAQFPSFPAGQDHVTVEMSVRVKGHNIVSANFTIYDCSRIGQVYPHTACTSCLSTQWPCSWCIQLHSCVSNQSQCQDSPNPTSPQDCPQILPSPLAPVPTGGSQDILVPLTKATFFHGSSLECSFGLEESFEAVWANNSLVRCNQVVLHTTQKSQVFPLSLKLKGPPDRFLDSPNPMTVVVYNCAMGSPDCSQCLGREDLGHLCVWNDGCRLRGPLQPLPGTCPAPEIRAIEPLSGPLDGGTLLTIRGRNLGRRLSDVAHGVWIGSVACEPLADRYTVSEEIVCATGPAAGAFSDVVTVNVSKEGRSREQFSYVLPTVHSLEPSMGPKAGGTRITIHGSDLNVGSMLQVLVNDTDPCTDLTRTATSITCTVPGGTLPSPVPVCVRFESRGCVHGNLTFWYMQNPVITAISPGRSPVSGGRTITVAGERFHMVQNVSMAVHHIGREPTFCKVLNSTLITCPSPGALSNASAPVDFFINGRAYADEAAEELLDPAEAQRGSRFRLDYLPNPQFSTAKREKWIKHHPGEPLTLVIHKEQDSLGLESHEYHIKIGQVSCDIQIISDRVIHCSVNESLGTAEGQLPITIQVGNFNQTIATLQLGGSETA
Assay: SPR

B1: sema3E-Fc (semaphorin 3E as C-terminal Fc-fusion construct) (Fc fusion, UniProt P70275 26-775, looked up)
chain: ANPSYPRLRLSHKELLELNRTSIFQSPLGFLDLHTMLLDEYQERLFVGGRDLVYSLNLERVSDGYREIYWPSTAVKVEECIMKGKDANECANYIRVLHHYNRTHLLTCATGAFDPHCAFIRVGHHSEEPLFHLESHRSERGRGRCPFDPNSSFVSTLVGNELFAGLYSDYWGRDSAIFRSMGKLGHIRTEHDDERLLKEPKFVGSYMIPDNEDRDDNKMYFFFTEKALEAENNAHTIYTRVGRLCVNDMGGQRILVNKWSTFLKARLVCSVPGMNGIDTYFDELEDVFLLPTRDPKNPVIFGLFNTTSNIFRGHAVCVYHMSSIREAFNGPYAHKEGPEYHWSLYEGKVPYPRPGSCASKVNGGKYGTTKDYPDDAIRFARMHPLMYQPIKPVHKKPILVKTDGKYNLRQLAVDRVEAEDGQYDVLFIGTDTGIVLKVITIYNQETEWMEEVILEELQIFKDPAPIISMEISSKRQQLYIGSASAVAQVRFHHCDMYGSACADCCLARDPYCAWDGISCSRYYPTGAHAKRRFRRQDVRHGNAAQQCFGQQFVGDALDRTEERLAYGIESNSTLLECTPRSLQAKVIWFVQKGRDVRKEEVKTDDRVVKMDLGLLFLRVRKSDAGTYFCQTVEHNFVHTVRKITLEVVEEHKVEGMFHKDHEEERHHKMPCPPLSGMSQGTKPWYKEFLQLIGYSNFQRVEEYCEKVWCTDKKRKKLKMSPSKWKYANPQEKRLRSKAEHFRLPRHTLLS
- Kd: 43.4 nM

From publication PMC2615553 (Immunity, 2008)
